# B1: recombinant human SAA (protein, UniProt P0DJI8 19-122, looked up)
# Serum amyloid A-1 protein: RSFFSFLGEAFDGARDMWRAYSDMREANYIGSDKYFHARGNYDAAKRGPGGAWAAEVITDARENIQRFFGHGAEDSLADQAANEWGRSGKDPNHFRPAGLPEKY
# Tests used:
# SOCS3 in Treg = experiment: SOCS3 expression in forskolin-treated Treg by intracellular staining; type: cell-based, human; details: after 24 hour stimulation
# Experimental: To evaluate effects of plasma on suppression assays and immune cell cultures, frozen plasma samples were thawed at 25° C. and debris were removed with sterile 40 μm filters (BD Biosciences). All plasma samples were tested in duplicates or triplicates. To control for variations in suppressive and proliferative potentials of Treg and Teff, respectively, both HC and SJIA plasma samples were used in parallel suppression assays with the same set of purified cells for each round of experiments. In addition, fold change in 3H-thymidine cpm in assays with plasma compared to those in complete media alone, was computed to analyze the effects of plasma in suppression assays or stimulation assays. In CFSE assays, percentage of proliferating cells (shown by dye dilution) was used to analyze the effects of plasma on cell proliferation. IL-1Ra, neutralizing antibody against IL-6 and TNF-α (R&D System), and recombinant IL-1, IL-6 (Peprotech) were used to evaluate the roles of these cytokines in suppression assays. Recombinant SAA (Peprotech) was used at different concentrations in suppression assays in the presence of polymixin (5 μg/ml). […] To pharmacologically modulate SOCS3, isolated Treg were cultured with forskolin (Calbiochem) at different concentrations and analyzed for SOCS3 expression at different time points. […]
# [1] = system: pERK1/2, pAKT, pSTAT3 in Treg and Teff; experiment: Phosphorylation of ERK1/2, AKT and STAT3 in Treg and Teff in suppression assays by FACS; type: cell-based, human; details: assays with SJIA plasma, day 4; IL-1 RA 1 μM, anti-IL-6 1 μg/ml
# Experimental: (§1) Detection of surface markers and intracellular molecules was performed. Antibodies used in these experiments included anti-human RAGE, SOCS3 (Abcam), CD14-FITC, DR-FITC, Foxp3-FITC, Lin (mixture of CD3, CD14, CD16, CD19, CD56)-FITC, CD14-PE, CD25-PE, CD40-PE, CD83-PE, CD127-PE, HVEM-PE, PDL2-PE, IL-1-PE, IL-6-PE, CD3-PerCP, CD4-PerCP, CD19-PerCP, CD25-PerCP, DR-PerCP, Lin-PerCP, CD3-APC, CD4-APC, CD14-APC, CD36-APC, CD86-APC, TLR2-APC, TLR4-APC, PDL1-APC, CCR7-APC, IL-6-APC, Lin-APC (Biolegend), Ki-67 FITC, pSTAT3 Alexa-647, pAKT Alexa-647, pERK1/2 Alexa-647 (BD Biosciences), and FPRL-1-APC(R&D System). Antibodies to mouse proteins used in these experiments included anti-CD25-PE, CD4-PerCP, CD11b-PerCP, CD115-APC, and Foxp3-APC (Biolegend). For in vitro experiments, to assay for expression of different surface and intracellular molecules in a specific cell subset (Treg, Teff or APC) in mixed cell cultures, the relevant subset was labeled with CFSE prior to suppression assays. Cells were pelleted at various time points and underwent standard staining protocols of the manufacturers. For in vivo experiments, cells were harvested from the peritoneal cavity and underwent flow cytometric analysis.
# Treg and Teff [2] = experiment: CFSE-based Treg suppression assay with APC; type: cell-based, human
# Experimental: Carboxyfluorescein diacetate succinimidyl ester (CFSE) dilution assay was used for measuring T cell proliferation in suppression assays. Briefly, Treg were labeled with CFSE using Cell Tracer CFSE Cell Proliferation kit (Molecular Probes) at a final concentration of 10 μM, according to manufacturer's instructions. Assays with labeled cells were performed as described for 3H-thymidine-based suppression assays. After 7 days of culture, cells were harvested and dye dilution was analyzed by flow cytometry. Stimulation assays were set up similarly with allogeneic irradiated APC and only one type of CFSE-labeled T cells (either Treg or Teff). For APC fixation, these cells were first re-suspended in PBS+10% FBS+1% paraformaldehyde for […] at 37° C. Fixed cells were pelleted by centrifugation, washed and then cultured in complete media.
# To evaluate effects of plasma on suppression assays and immune cell cultures, frozen plasma samples were thawed at 25° C. and debris were removed with sterile 40 μm filters (BD Biosciences). All plasma samples were tested in duplicates or triplicates. To control for variations in suppressive and proliferative potentials of Treg and Teff, respectively, both HC and SJIA plasma samples were used in parallel suppression assays with the same set of purified cells for each round of experiments. In addition, fold change in 3H-thymidine cpm in assays with plasma compared to those in complete media alone, was computed to analyze the effects of plasma in suppression assays or stimulation assays. In CFSE assays, percentage of proliferating cells (shown by dye dilution) was used to analyze the effects of plasma on cell proliferation. IL-1Ra, neutralizing antibody against IL-6 and TNF-α (R&D System), and recombinant IL-1, IL-6 (Peprotech) were used to evaluate the roles of these cytokines in suppression assays. […] To pharmacologically modulate SOCS3, isolated Treg were cultured with forskolin (Calbiochem) at different concentrations and analyzed for SOCS3 expression at different time points.
# Treg and Teff [3] = experiment: Suppression assay without APC (anti-CD3 and anti-CD28 as T cell stimuli); type: cell-based, human; details: recombinant SAA 25 μg/ml
# Experimental: Standard 3H-thymidine-based suppression assays were performed to analyze Treg function. Autologous Treg and Teff were cultured at 3,750 cells per 50 μl per well in complete media (RPMI+10% FBS+1% L-glutamine) with allogeneic irradiated CD3-depleted peripheral blood mononuclear cells (antigen presenting cells or APC), at 37,500 cells per 50 μl per well. Anti-CD3 antibodies (clone UCHT1, BD Biosciences) were pre-coated on U-bottom 96 well plates at 5 μg/ml for 4 hours at 37° C. before suppression assays. Additional media was added so the final volume in each well was 200 μl. On day 6, cells were pulsed with 1 μCi 3H-thymidine (25 μl) per well and harvested on day 7 with a Tomtec cell harvester. 3H-thymidine incorporation was determined using a 1450 microbeta Wallac Trilux liquid scintillation counter. […] Stimulation assays were set up similarly with allogeneic irradiated APC and only one type of T cell (either Treg or Teff). All assays were performed in triplicates. For suppression assays without APC, anti-CD3 antibodies at 5 μg/ml final concentration (clone UCHT1, BD Biosciences) were plate-bound in U-bottom 96-well plates for 4 hours at 37° C. Soluble anti-CD28 (5 μg/ml, BD Biosciences) was added, followed by Teff (40,000 cells per 50 μl per well) and Treg (40,000 cells per 50 μl per well). […]
# [4] = system: APC, monocytes and B cells; experiment: Secreted and intracellular cytokines in suppression assays, APC, monocyte and B cell cultures; type: cell-based, human; details: 25 μg/ml, polymixin 5 μg/ml, 24 hours
# Experimental: Both suppression assays and APC cultures were set up for supernatant collection. For APC cultures, 50 μl of APC stock solution (750,000 cells per ml) were incubated in a final volume of 200 μl per well in complete media. Plasma samples were used at 35 μl per well. At different time points, supernatants were collected after centrifugation to pellet cells; supernatants representing samples from the same experimental conditions were pooled from 6 wells of 96-well plates and stored at −80° C. until analysis. To detect cytokines in the supernatants, cytometric bead arrays (BD Biosciences) and ELISA (R&D System) were used according to manufacturers' protocols. Similar assays were performed for plasma samples from HC and SJIA subjects.
# Detection of surface markers and intracellular molecules was performed. Antibodies used in these experiments included anti-human RAGE, SOCS3 (Abcam), CD14-FITC, DR-FITC, Foxp3-FITC, Lin (mixture of CD3, CD14, CD16, CD19, CD56)-FITC, CD14-PE, CD25-PE, CD40-PE, CD83-PE, CD127-PE, HVEM-PE, PDL2-PE, IL-1-PE, IL-6-PE, CD3-PerCP, CD4-PerCP, CD19-PerCP, CD25-PerCP, DR-PerCP, Lin-PerCP, CD3-APC, CD4-APC, CD14-APC, CD36-APC, CD86-APC, TLR2-APC, TLR4-APC, PDL1-APC, CCR7-APC, IL-6-APC, Lin-APC (Biolegend), Ki-67 FITC, pSTAT3 Alexa-647, pAKT Alexa-647, pERK1/2 Alexa-647 (BD Biosciences), and FPRL-1-APC(R&D System). […]
# peritoneal Treg and Teff = experiment: In vivo effects of SAA on Treg frequency and proliferation (intraperitoneal injection); design: species or system C57B6 mice; details: 16 hours
# Experimental: as §1, with “C57B6 mice (male, 8 to 10 weeks old) were purchased from Jackson Laboratory. Mice were injected intraperitoneally with recombinant human SAA (Peprotech, 30 μg in 100 μl PBS), purified human serum albumin (Sigma Aldrich, 30 μg in 100 μl PBS), or endotoxin (Sigma Aldrich, 0.25 ng in 100 μl PBS). Animals were sacrificed 16 hours later; peritoneal cells were harvested and stained for surface and intracellular markers to detect Treg frequency and proliferation. In vivo depletion of monocytes was performed with clodronate liposomes (Encapsula). In these experiments, 400 μl of clodronate or empty liposomes were injected intraperitoneally 24 hours before SAA injection. Detection” for “Detection”, “[…],” for “CD127-PE, HVEM-PE, PDL2-PE, IL-1-PE, IL-6-PE,”
# [5] = in the presence of polymixin (5 μg/ml)
molecule,measurement,setting,value
C=C[C@@]1(C)CC(=O)[C@]2(O)[C@@]3(C)[C@@H](O)CCC(C)(C)[C@@H]3[C@H](O)[C@H](OC(C)=O)[C@@]2(C)O1 [forskolin],optimal dosing for SOCS3 induction in Treg,SOCS3 in Treg,100 µM
IL-1Ra: IL-1 receptor antagonist (R&D System),phosphorylated ERK1/2 in Treg with blocking reagent,[1],abrogated the increased expression
same,phosphorylation of AKT in Treg with blocking reagent,[1],inhibited phosphorylation of AKT
same,inhibition of SJIA plasma-induced Treg proliferation,"Treg and Teff [2]; suppression assays with SJIA plasma, various concentrations, IL-1 Ra 1 μM, antibodies 1 μg/ml",significant inhibition
B1,Treg proliferation in the absence of APC,Treg and Teff [3],failed to induce Treg proliferation
same,IL-1 production by monocytes compared with B cells,[4],significantly higher levels
same,IL-6 production by monocytes compared with B cells,[4],significantly higher levels
same,Treg abundance in the peritoneal cavity,"peritoneal Treg and Teff; 30 μg i.p. in 100 μl PBS, vs human serum albumin or endotoxin",significant increase in Treg abundance
same,Teff proliferation in vivo,peritoneal Treg and Teff; 30 μg i.p.,did not enhance Teff proliferation
same,percentage of peritoneal Treg expressing Ki-67,"peritoneal Treg and Teff; 30 μg i.p., vs controls",significantly higher percentage
same,Treg proliferation in suppression assays,Treg and Teff [2]; [5],selectively enhance proliferation of Treg
same,Treg suppressive activity,Treg and Teff [2]; [5],without reducing their suppressive activity
